In data set [1] the target is T1, human ORC1-5 (HsORC1-5, with ORC1ΔN) (Homo sapiens, UniProt O43929+Q13415, O43929:N78S/Q13415:R720Q).
T1 construct: ORC1 N-terminally truncated (ORC1ΔN399, probably starts at residue 400), ORC4 with natural variant N78S; 6xHis-TEV (ORC1) and MBP-TEV (ORC4) tags cleaved; baculovirus/High Five cells; ORC6 not included; with Origin recognition complex subunit 2; Origin recognition complex subunit 3; Origin recognition complex subunit 5
Briefly: NADH-coupled steady-state ATPase assay. The settings on record: ATP 0.13 uM to 0.5 mM, 1 uM ORC, 10 mM Mg acetate, 300 mM K glutamate, pH 7.6, 37 C; ORC1-ORC4 ATPase site. The data set is classed as biochemical.

In a further data set the target is ORC1-5 ORC1 R666W (human, UniProt Q13415;Q13416;Q9UBD5;O43929;O43913 400-861;1-577;1-711;1-436;1-435, R666W;N78S). Briefly: fluorescence anisotropy; 1 mM ATP, 10 mM Mg acetate; 25 mM HEPES-KOH pH 7.6, 300 mM K glutamate, 10% glycerol, 1 mM DTT, 10 mM Mg acetate, 0.01% NP-40, 0 or 1 mM ATP, 1 nM DNA, 30 min at 22 °C; Hill fit (Kd,app). The conditions noted are these: protein: recombinant; tags: 6xHis-TEV (ORC1) and MBP-TEV (ORC4), cleaved by TEV; copies: 1;1;1;1;1; label: 5' fluorescein-T on strand 1; blunt (40 bp; possible 1 nt 5' FluorT overhang).

A further data set concerns the target ORC1-5 ORC4 Y174C (human, UniProt Q13415;Q13416;Q9UBD5;O43929;O43913 400-861;1-577;1-711;1-436;1-435, Y174C;ORC4:N78S). The description is as above. The conditions noted are these: protein: recombinant; tags: 6xHis-TEV (ORC1) and MBP-TEV (ORC4), cleaved by TEV; copies: 1;1;1;1;1; label: 5' fluorescein-T on strand 1; blunt (40 bp; possible 1 nt 5' FluorT overhang).

Another data set deals with ORC1-5 (WT, ORC1ΔN) (human, UniProt Q13415;Q13416;Q9UBD5;O43929;O43913 400-861;1-577;1-711;1-436;1-435, N78S). Described as above. The conditions noted are these: protein: recombinant; tags: 6xHis-TEV (ORC1) and MBP-TEV (ORC4), cleaved by TEV; copies: 1;1;1;1;1; label: 5' fluorescein-T on strand 1; blunt (40 bp; possible 1 nt 5' FluorT overhang).
Another data set concerns the target ORC1-5 ORC1 R720Q (human, UniProt Q13415;Q13416;Q9UBD5;O43929;O43913 400-861;1-577;1-711;1-436;1-435, R720Q;N78S). The description is as above. The settings on record: protein: recombinant; tags: 6xHis-TEV (ORC1) and MBP-TEV (ORC4), cleaved by TEV; copies: 1;1;1;1;1; label: 5' fluorescein-T on strand 1; blunt (40 bp; possible 1 nt 5' FluorT overhang).

T1 sequence (Q13415 400-861 R720Q): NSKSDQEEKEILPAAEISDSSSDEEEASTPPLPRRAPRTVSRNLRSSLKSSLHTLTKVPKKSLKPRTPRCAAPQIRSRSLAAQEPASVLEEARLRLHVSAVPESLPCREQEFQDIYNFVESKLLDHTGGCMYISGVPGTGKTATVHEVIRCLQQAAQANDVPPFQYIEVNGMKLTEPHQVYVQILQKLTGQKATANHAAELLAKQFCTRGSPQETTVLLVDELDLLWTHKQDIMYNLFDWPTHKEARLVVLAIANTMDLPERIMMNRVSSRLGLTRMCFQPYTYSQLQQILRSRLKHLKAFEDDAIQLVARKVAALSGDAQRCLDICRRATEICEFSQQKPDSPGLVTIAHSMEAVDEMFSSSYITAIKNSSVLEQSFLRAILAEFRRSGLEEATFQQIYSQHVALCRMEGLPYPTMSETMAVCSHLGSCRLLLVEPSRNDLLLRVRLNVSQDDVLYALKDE
T1 sequence (O43929 whole entry N78S, the tested form may be a part): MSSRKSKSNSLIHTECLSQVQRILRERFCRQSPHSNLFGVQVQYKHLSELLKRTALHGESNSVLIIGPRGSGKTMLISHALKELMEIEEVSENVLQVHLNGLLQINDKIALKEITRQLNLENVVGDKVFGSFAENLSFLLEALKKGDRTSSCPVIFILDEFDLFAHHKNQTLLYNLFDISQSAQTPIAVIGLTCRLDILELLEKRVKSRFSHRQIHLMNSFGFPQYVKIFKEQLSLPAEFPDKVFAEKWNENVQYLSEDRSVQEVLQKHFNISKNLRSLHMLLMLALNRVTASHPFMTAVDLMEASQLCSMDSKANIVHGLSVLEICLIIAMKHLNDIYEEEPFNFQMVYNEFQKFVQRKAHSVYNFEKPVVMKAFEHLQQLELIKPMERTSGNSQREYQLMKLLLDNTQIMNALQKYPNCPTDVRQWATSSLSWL
T1 sequence (Q13416 whole entry partner, the tested form may be a part): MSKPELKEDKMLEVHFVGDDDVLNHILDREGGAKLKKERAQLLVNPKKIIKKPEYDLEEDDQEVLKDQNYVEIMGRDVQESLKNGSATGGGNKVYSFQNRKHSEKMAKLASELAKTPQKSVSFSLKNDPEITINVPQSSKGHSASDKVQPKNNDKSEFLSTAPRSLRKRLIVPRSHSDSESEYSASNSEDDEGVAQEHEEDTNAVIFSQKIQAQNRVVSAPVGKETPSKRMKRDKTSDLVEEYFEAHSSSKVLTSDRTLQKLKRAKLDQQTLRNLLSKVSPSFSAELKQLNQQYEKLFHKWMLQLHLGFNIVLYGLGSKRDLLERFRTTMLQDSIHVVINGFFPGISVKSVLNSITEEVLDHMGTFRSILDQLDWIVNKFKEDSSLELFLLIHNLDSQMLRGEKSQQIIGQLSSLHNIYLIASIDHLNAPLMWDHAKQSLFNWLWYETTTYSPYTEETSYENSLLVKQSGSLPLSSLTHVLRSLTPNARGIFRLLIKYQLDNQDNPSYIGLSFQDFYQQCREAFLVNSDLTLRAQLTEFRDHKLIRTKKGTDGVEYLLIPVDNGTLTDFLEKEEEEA
T1 sequence (Q9UBD5 whole entry partner, the tested form may be a part): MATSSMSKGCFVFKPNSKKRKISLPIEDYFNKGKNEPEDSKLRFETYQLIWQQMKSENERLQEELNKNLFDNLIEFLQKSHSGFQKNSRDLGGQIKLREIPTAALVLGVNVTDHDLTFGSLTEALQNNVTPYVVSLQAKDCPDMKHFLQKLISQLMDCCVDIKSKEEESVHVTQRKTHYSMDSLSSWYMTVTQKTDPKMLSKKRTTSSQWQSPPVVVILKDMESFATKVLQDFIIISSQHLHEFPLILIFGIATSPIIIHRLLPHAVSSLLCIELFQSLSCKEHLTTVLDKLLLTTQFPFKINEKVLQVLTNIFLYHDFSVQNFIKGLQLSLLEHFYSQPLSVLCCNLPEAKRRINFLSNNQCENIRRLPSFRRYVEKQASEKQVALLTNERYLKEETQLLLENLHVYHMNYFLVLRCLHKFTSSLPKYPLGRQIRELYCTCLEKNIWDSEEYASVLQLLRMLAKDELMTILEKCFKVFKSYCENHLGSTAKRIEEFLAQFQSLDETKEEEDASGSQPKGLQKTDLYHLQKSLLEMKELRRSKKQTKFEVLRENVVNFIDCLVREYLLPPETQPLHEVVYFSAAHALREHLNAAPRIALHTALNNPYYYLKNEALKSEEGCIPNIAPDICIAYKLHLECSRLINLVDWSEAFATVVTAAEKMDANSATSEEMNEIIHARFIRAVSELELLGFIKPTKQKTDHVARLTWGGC
T1 sequence (O43913 whole entry partner, the tested form may be a part): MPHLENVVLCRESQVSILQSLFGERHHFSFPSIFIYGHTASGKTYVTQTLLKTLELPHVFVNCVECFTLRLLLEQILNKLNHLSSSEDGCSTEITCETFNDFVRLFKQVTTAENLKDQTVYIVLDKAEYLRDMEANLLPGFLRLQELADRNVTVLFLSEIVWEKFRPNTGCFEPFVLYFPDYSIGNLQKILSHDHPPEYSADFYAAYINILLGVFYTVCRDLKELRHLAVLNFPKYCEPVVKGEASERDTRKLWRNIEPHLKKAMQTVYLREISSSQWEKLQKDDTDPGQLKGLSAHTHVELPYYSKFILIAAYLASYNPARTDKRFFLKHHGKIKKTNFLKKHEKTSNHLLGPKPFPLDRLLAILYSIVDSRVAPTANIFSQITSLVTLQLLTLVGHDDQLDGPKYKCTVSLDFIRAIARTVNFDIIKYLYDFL

For the molecule `Nc1ncnc2c1ncn2[C@@H]1O[C@H](COP(=O)(O)OP(=O)(O)OP(=O)(O)O)[C@@H](O)[C@H]1O` [ATP], in data set [1], the “NADH-coupled steady-state ATPase assay” value is “with the largest ATP hydrolysis defect observed with ORC1R720Q”.

B1: 40 bp fluorescein dsDNA (dsDNA)
DNA 1: TTTTGAAAAGCAAGCATAAAAGATCTAAACATAAAATCTG
DNA 2: CAGATTTTATGTTTAGATCTTTTATGCTTGCTTTTCAAAA
Take B1: the Kd came out at 0.0499 µM with ORC1-5 ORC1 R666W and 0.0376 µM with ORC1-5 (WT, ORC1ΔN). The binding result with ORC1-5 ORC4 Y174C and with ORC1-5 ORC1 R720Q was “no binding” each time.

The values are drawn from article PMC12830165 (The Journal of Biological Chemistry, 2025).
